Measured values: publication PMC10397247
Blank lines part the entries; values can stand above or below the binder they belong to.

Tests used:
4H510-AA = target: T1, 4H510-AA; assay: two-hybrid library CCmax; conditions: mean of both orientations;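 also: natural log of median RNA to DNA barcode read ratio; higher means stronger binding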
T1 chain: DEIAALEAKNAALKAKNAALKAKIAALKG

4H2705-AA = target: T2, 4H2705-AA; assay: two-hybrid library CCmax; conditions: mean of both orientations;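 also: natural log of median RNA to DNA barcode read ratio; higher means stronger binding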
T2 chain: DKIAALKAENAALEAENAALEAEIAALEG

4H233-AA = target: T3, 4H233-AA; assay: two-hybrid library CCmax; conditions: mean of both orientations;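 also: natural log of median RNA to DNA barcode read ratio; higher means stronger binding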
T3 chain: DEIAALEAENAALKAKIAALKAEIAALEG

4H87-AA = target: T4, 4H87-AA; assay: two-hybrid library CCmax;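 also: natural log of median RNA to DNA barcode read ratio; higher means stronger binding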
T4 chain: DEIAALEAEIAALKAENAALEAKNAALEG

4H278-AA = target: T5, 4H278-AA; assay: two-hybrid library CCmax; conditions: mean of both orientations;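 also: natural log of median RNA to DNA barcode read ratio; higher means stronger binding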
T5 chain: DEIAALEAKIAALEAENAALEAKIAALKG

4H2985-AA = target: T6, 4H2985-AA; assay: two-hybrid library CCmax; conditions: mean of both orientations;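 also: natural log of median RNA to DNA barcode read ratio; higher means stronger binding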
T6 chain: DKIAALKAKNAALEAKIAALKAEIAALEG

4H1985-AA = target: T7, 4H1985-AA; assay: two-hybrid library CCmax
T7 chain: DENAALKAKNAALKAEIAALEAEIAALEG

4H390-AA = target: T8, 4H390-AA; assay: two-hybrid library CCmax; conditions: mean of both orientations
T8 chain: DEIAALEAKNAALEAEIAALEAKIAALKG

4H816-AA = target: T9, 4H816-AA; assay: two-hybrid library CCmax; conditions: mean of both orientations
T9 chain: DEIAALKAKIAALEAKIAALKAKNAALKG

4H2187-AA = target: T10, 4H2187-AA; assay: two-hybrid library CCmax; conditions: mean of both orientations
T10 chain: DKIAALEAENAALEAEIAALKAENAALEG

4H3134-AA = target: T11, 4H3134-AA; assay: two-hybrid library CCmax; conditions: mean of both orientations
T11 chain: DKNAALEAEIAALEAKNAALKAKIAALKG

4H2758-AA = target: T12, 4H2758-AA; assay: two-hybrid library CCmax; conditions: mean of both orientations
T12 chain: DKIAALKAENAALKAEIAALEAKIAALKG

4H3940-AA = target: T13, 4H3940-AA; assay: two-hybrid library CCmax; conditions: mean of both orientations
T13 chain: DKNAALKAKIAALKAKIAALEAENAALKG

4H2512-AA = target: T14, 4H2512-AA; assay: two-hybrid library CCmax; conditions: mean of both orientations
T14 chain: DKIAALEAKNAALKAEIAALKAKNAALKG

4H2873-AA = target: T15, 4H2873-AA; assay: two-hybrid library CCmax; conditions: mean of both orientations
T15 chain: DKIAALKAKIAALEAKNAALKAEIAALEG

4H2687-AA = target: T16, 4H2687-AA; assay: two-hybrid library CCmax; conditions: mean of both orientations
T16 chain: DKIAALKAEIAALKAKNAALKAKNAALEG

4H3409-AA = target: T17, 4H3409-AA; assay: two-hybrid library CCmax; conditions: mean of both orientations
T17 chain: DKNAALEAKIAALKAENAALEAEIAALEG

4H775-AA = target: T18, 4H775-AA; assay: two-hybrid library CCmax; conditions: mean of both orientations
T18 chain: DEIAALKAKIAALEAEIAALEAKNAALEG

4H2646-AA = target: T19, 4H2646-AA; assay: two-hybrid library CCmax; conditions: mean of both orientations
T19 chain: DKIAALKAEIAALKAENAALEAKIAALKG

4H3625-AA = target: T20, 4H3625-AA; assay: two-hybrid library CCmax; conditions: mean of both orientations
T20 chain: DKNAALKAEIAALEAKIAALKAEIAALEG

4H454-bN = target: T21, 4H454-bN; assay: two-hybrid library CCNG1
T21 chain: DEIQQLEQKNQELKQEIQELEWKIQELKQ

4H3354-bN = target: T22, 4H3354-bN; assay: two-hybrid library CCNG1
T22 chain: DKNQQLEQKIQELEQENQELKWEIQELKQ

4H717-bN = target: T23, 4H717-bN; assay: two-hybrid library CCNG1
T23 chain: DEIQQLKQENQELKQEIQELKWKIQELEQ

4H3185-bN = target: T24, 4H3185-bN; assay: two-hybrid library CCNG1
T24 chain: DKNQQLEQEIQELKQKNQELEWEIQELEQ

4H883-bN = target: T25, 4H883-bN; assay: two-hybrid library CCNG1
T25 chain: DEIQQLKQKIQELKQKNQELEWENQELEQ

P4mS = target: T26, P4mS; assay: two-hybrid library CCNG1
T26 chain: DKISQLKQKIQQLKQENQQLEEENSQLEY

4H331-bN = target: T27, 4H331-bN; assay: two-hybrid library CCNG1
T27 chain: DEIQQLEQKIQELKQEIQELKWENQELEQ

4H4001-bN = target: T28, 4H4001-bN; assay: two-hybrid library CCNG1
T28 chain: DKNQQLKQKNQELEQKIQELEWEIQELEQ

4H953-bN = target: T29, 4H953-bN; assay: two-hybrid library CCNG1
T29 chain: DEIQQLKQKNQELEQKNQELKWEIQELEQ

4H72-bN = target: T30, 4H72-bN; assay: two-hybrid library CCNG1
T30 chain: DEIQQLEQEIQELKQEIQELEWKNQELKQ

4H3782-bN = target: T31, 4H3782-bN; assay: two-hybrid library CCNG1
T31 chain: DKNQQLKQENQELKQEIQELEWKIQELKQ

4H3427-bN = target: T32, 4H3427-bN; assay: two-hybrid library CCNG1
T32 chain: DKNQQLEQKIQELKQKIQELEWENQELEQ

4H797-bN = target: T33, 4H797-bN; assay: two-hybrid library CCNG1
T33 chain: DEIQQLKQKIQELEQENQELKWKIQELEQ

4H967-bN = target: T34, 4H967-bN; assay: two-hybrid library CCNG1
T34 chain: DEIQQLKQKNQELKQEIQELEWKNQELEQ

P9SHb = target: T35, P9SHb; assay: two-hybrid library CCNG1
T35 chain: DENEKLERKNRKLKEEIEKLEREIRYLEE

4H568-bN = target: T36, 4H568-bN; assay: two-hybrid library CCNG1
T36 chain: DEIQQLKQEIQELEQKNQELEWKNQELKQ

4H918-bN = target: T37, 4H918-bN; assay: two-hybrid library CCNG1
T37 chain: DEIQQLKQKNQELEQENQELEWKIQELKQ

4H908-bN = target: T38, 4H908-bN; assay: two-hybrid library CCNG1
T38 chain: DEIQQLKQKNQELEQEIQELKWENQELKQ

4H687-bN = target: T39, 4H687-bN; assay: two-hybrid library CCNG1
T39 chain: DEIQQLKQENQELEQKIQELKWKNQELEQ

4H338-bN = target: T40, 4H338-bN; assay: two-hybrid library CCNG1
T40 chain: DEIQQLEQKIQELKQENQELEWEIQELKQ

4H607-bN = target: T41, 4H607-bN; assay: two-hybrid library CCNG1
T41 chain: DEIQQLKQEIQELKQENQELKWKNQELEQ

4H754-bN = target: T42, 4H754-bN; assay: two-hybrid library CCNG1
T42 chain: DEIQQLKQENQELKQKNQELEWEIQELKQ

4H3855-bN = target: T43, 4H3855-bN; assay: two-hybrid library CCNG1
T43 chain: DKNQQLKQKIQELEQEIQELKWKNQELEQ

- interaction score (4H510-AA): -0.896
- interaction score (4H2705-AA): -1.05
- interaction score (4H233-AA): 0.704
- interaction score (4H87-AA): -1.37
- interaction score (4H278-AA): -1.45
- interaction score (4H2985-AA): -0.418
- interaction score (4H1985-AA): -1.91
- interaction score (4H390-AA): 1.06
- interaction score (4H816-AA): -0.103
- interaction score (4H2187-AA): -2.04
- interaction score (4H3134-AA): -0.682
- interaction score (4H2758-AA): 0.628
- interaction score (4H3940-AA): -0.542
- interaction score (4H2512-AA): -1.41
- interaction score (4H2873-AA): -1.18
- interaction score (4H2687-AA): -1.92
- interaction score (4H3409-AA): -1.05
- interaction score (4H775-AA): -1.28
- interaction score (4H2646-AA): 0.352
- interaction score (4H3625-AA): -0.122
B1: 4H1985-AA (peptide)
chain: DENAALKAKNAALKAEIAALEAEIAALEG

- interaction score (4H454-bN): -2.08
- interaction score (4H3354-bN): -0.593
- interaction score (4H717-bN): -0.903
- interaction score (4H3185-bN): -1.05
- interaction score (4H883-bN): -1.12
- interaction score (P4mS): -0.366
- interaction score (4H331-bN): -2.02
- interaction score (4H4001-bN): -1.46
- interaction score (4H953-bN): -1.45
- interaction score (4H72-bN): -2.24
- interaction score (4H3782-bN): -0.997
- interaction score (4H3427-bN): -0.99
- interaction score (4H797-bN): -0.638
- interaction score (4H967-bN): -2.19
- interaction score (P9SHb): -0.815
- interaction score (4H568-bN): -2.82
- interaction score (4H918-bN): -1.19
- interaction score (4H908-bN): -0.952
- interaction score (4H687-bN): -2.77
- interaction score (4H338-bN): -1.14
- interaction score (4H607-bN): -0.581
- interaction score (4H754-bN): -0.979
- interaction score (4H3855-bN): -1.23
B2: 4H3185-bN (peptide)
chain: DKNQQLEQEIQELKQKNQELEWEIQELEQ
